Tests used:
[1] = tested on: Collagenase Type I (Clostridium histolyticum); experiment: In vitro degradation of peptide-PCL samples with collagenase; type: in vitro ADME; settings: 37°C, mean ± SD; for Mass loss in collagenase: 2 mg/mL collagenase in ZB, 21 days, washed, lyophilized, weighed, n = 4; for Cumulative Cy3 release / Cumulative Cy3 release as % of the total Cy3 in the sample: 10 mm solvent-cast disks, 2 mg/mL collagenase in 1X ZB, 5% CO2, 21 days, fluorescence ex 550/em 580 nm, n = 6
Description: (§1) Samples were pinned to silicone elastomer‐coated 24‐well plates using 0.1 mm dissection pins. The degradation behavior of the samples in the presence of collagenase was assessed by immersing pinned samples in 2 mg/mL collagenase in 1X Zymogram Developing Buffer (ZB). Solutions (1 mL) were collected and changed after the first day of incubation then after every 3–4 days. Samples were placed in an incubator (37°C, 5% CO2) for up to 21 days. Samples were also exposed to ZB as a baseline control.
(§2) Samples were weighed before and after 21 days of incubation with ZB or collagenase. After the 21‐day incubation period, samples were collected and washed three times with ultrapure water to remove residual enzymes or salts. Following washing, samples were lyophilized and subsequently weighed to determine the final mass. Percent mass loss was calculated based on the difference between initial and final masses.

[2] = type: in vitro ADME
Description: as §1, §2

[3] = tested on: multiple cell types; settings: prior peptide screening methods; cited from earlier work
Text: We also included a scrambled version of Fast (LTRLMEKRRKV; ScrFast) in which the positions of uncharged amino acids (L, M, V) were exchanged with the charged amino acids (E, K, R). We quantified degradation of these four peptides with different mac ...

Question: For “CK(Cy3)KRVKRRL↓LMETC [Fast‐PCL, linear PCL‐PEG‐peptide‐PEG‐PCL conjugate of Cy3‐modified Fast with maleimide‐functionalized PCL (25 kDa) / PEG (5 kDa); tested as solvent‐cast disks with RGDS‐PCL]”, which “Mass loss in collagenase” value [1] is on record?
Answer: 22.1% ± 1.2%

Question: And the “Cumulative Cy3 release” value [1]?
Answer: 20.38 ± 2.17 nmol

Question: What about the “Cumulative Cy3 release as % of the total Cy3 in the sample” value [1] of the same substance?
Answer: 25.77% ± 3.70%

Question: And the “Mass loss in ZB” value [2]?
Answer: 16.5% ± 1.6%

Question: Which results are given for “CK(Cy3)LTRLMEKRRKVC [ScrFast‐PCL, linear PCL‐PEG‐peptide‐PEG‐PCL conjugate of Cy3‐modified ScrFast; tested as solvent‐cast disks with RGDS‐PCL]”?
Answer: Mass loss in collagenase [1]: 18.9% ± 3.8%; Cumulative Cy3 release [1]: 8.70 ± 0.92 nmol; Cumulative Cy3 release as % of the total Cy3 in the sample [1]: 11.31% ± 1.01%; Mass loss in ZB [2]: 15.2% ± 7.8%

Question: Which “Peptide degradation behavior in prior peptide screening” value [3] does the source give for PPDKTSPEPA [Control] here?
Answer: negligible degradation behavior
